What was measured:
[1] = target: the molecule itself; assay: Western blot of lysate under non-denaturing conditions
M1-linked diUb = M1-linked diUb (UniProt P0CG48); assay: ITC
monoUb = monoUb (UniProt P0CG48 1-76); assay: ITC
SEC = target: the molecule itself; assay: SEC

Binder	stoichiometry N [1]	binding result (M1-linked diUb)	binding result (monoUb)	binding result (SEC)
mouse N4BP1 (613-893) in cell lysate (dimerization test of Fig. 2B) (domain or fragment) ADLKHIVIDGSNVAITHGLKKFFSCRGIAIAVEYFWKLGNRNITVFVPQWRTRRDPNITEQHFLTQLQELGILSLTPARMVFGERIASHDDRFLLHLADKTGGIIVTNDNFREFVTESVSWREIITKRLLQYTFVGDIFMVPDDPLGRNGPRLEEFLRKEAFLRHMQPLLNALPSVGTFDPGFRSPSTQVANNSHQPPPRIQTSSSPWLPQQSHFTALATLPSMQQNPPLPAQRSSAETSELREALLKIFPDSEQKLKIDQILAAHPYMKDLNALSALVLD	2	–	–	–
ETSELREALLKIFPDSEQKLKIDQILAAHPYMKDLNALSALVLD (domain or fragment) [isolated N4BP1 CUE domain (residues 850-893) used for ITC, NMR and analytical gel filtration]	–	binds	binds	binds
